Results published in patent US20240239878A1 (SHANGHAI QILU PHARMACEUTICAL RESEARCH AND DEVELOPMENT CENTRE, published 2024).
Numbering of substitutions follows the chain as printed.

T1: human DLL1 (Sino Biological, Cat. No. 11635-H08H) (human, UniProt O00548 18-545)
T1 construct: also called family protein DLL1
T1 sequence: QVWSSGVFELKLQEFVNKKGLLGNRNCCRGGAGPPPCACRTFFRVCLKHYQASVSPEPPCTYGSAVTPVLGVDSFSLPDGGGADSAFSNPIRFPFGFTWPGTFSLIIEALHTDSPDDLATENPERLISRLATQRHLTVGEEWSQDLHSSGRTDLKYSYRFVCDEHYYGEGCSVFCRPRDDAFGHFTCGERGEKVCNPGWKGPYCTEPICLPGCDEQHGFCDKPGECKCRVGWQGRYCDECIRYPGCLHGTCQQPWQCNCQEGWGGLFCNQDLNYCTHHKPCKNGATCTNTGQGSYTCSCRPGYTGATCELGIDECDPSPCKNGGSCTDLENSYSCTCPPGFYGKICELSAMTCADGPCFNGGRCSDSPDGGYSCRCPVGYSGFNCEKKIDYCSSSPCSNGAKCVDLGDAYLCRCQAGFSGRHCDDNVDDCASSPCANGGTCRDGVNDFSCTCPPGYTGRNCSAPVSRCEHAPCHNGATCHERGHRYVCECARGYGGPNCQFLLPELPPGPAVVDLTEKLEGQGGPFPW

T2: Cynomolgus monkey DLL3 on HEK293 cells (HEK293-cyno DLL3) (Cynomolgus monkey, UniProt Q9NYJ7 27-618 (human entry))
T2 chain: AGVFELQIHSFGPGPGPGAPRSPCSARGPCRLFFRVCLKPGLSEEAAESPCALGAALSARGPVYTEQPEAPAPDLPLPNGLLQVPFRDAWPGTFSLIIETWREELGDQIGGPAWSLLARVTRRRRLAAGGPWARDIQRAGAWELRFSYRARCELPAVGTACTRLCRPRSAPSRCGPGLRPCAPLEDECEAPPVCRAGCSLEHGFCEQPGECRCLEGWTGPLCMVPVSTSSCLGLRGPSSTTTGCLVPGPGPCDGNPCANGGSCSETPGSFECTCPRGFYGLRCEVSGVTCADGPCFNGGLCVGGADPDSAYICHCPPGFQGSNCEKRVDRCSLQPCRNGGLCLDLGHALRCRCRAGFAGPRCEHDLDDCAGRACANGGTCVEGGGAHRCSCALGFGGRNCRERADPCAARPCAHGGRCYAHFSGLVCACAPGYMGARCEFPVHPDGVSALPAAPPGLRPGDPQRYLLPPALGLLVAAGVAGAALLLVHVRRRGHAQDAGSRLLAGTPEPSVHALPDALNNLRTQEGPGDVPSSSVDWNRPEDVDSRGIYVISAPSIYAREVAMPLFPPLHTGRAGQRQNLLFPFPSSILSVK

B1: hDLL3-26 camelid-derived humanized anti-DLL3 antibody (antibody, V domains shown)
VH: EVQLVESGGGLVQPGGSLRLSCAASGDIYSSSYVGWFRQAPGKEREGVAIIYTSGDSTYYADSVKGRFTISRDNSKNTLYLQMNSLRAEDTAVYYCAARFAIDNSNYWGQGTLVTVSS
B2: hDLL3-122 camelid-derived humanized anti-DLL3 antibody (antibody, V domains shown)
VH: EVQLVESGGGLVQPGGSLRLSCAASGDTYRSYCMGWFRQAPGKEREGVADIVSDGSTSYADSVKGRFTISRDNSKNTLYLQMNSLRAEDTAVYYCAVDRGGSGGYCYTGRYDYWGQGTLVTVSS
B3: hDLL3-3-1 camelid-derived humanized anti-DLL3 antibody (antibody, human IgG1, V domains shown)
VH: EVQLVESGGGLVQPGGSLRLSCAASTYTISSGYMGWFRQAPGKEREGVAAIYIGGSTTLYADSVKGRFTISRDNSKNTLYLQMNSLRAEDTAVYYCAAQLRPNSAYHPLDGRKYNYWGQGTLVTVSS
B4: hDLL3-3-2 camelid-derived humanized anti-DLL3 antibody (antibody, V domains shown)
VH: B3 VH with A23K, A24S, S25P
B5: DLL3-26 camelid-derived anti-DLL3 chimeric antibody (antibody, human IgG1, V domains shown)
VH: QVQLVESGGGSVQAGGSLRLSCAASGDIYSSSYVGWFRQAPGKEREGVAIIYTSGDSTYYANSVKGRFTISQDKAKKTLYLQMNSLKPEDTAMYYCAARFAIDNSNYWGQGTQVTVSS
B6: DLL3-3 camelid-derived anti-DLL3 chimeric antibody (antibody, human IgG1, V domains shown)
VH: DVQLVESGGGSVQAGGSLKLSCKSPTYTISSGYMGWFRQAPGKEREGVAAIYIGGSTTLYADSVKGRFTISADNAEKTVYLQMNTLKPEDSAMYYCAAQLRPNSAYHPLDGRKYNYWGQGTQVTVSS
B7: DLL3-122 camelid-derived anti-DLL3 chimeric antibody (antibody, human IgG1, V domains shown)
VH: QVQLVESGGGSVQAGGSLRLSCTASGDTYRSYCMGWFRKAPGKEREGVADIVSDGSTSYADSVKGRFTISKDNAKNTLYLQMNSLKPEDTAMYYCAVDRGGSGGYCYTGRYDYWGQGTQVTVSS

Biological target: T1, human DLL1 (Sino Biological, Cat. No. …)
Experiment: ELISA, plate coated with human DLL1 at 1 ug/mL, OD 450nm
Method: (§1) The antigen was washed three times with PBST, 300 μL/well. The antigen was blocked with 1% BSA (in PBST), 200 μL/well, and incubated at 37° C. for 1.5 hours.
(§2) Antibodies to be tested were diluted with 1% BSA (in PBS) at a starting concentration of 100 nM, downwards by a 10-fold gradient for 7 concentrations. The plates were washed three times with PBST, 300 μL/well. The diluted antibody was added to an ELISA plate at 100 μL/well and incubated at room temperature for 2 hours. The antibodies were washed three times with PBST, 300 μL/well. The secondary antibodies (goat anti-human IgG Fc for DLL4 (HRP), 1:20000 dilution: HRP goat anti-mouse IgG (H+L) for DLL1, 1:10000 dilution) were diluted with 1% BSA in PBST. The diluted secondary antibodies were added to the ELISA plate at 100 μL/well and incubated at room temperature for 1 hour. The plates were washed 6 times with PBST, 300 μL/well. The developing solution (TMA and TMB 1:1 mixed) was prepared. The developing solution was added to the plate, 100 μL/well, and incubated in the dark for 5 min. 50 μL of ELISA stop solution was added to the plate and shaken well.
(§3) OD450s were read on the envision and plotted on the GraphPad for EC₅₀ values.

binding result	Binder
no binding (tested: 100 nM)	B1
no binding (tested: 100 nM)	B2
no binding (tested: 100 nM)	B3
no binding (tested: 100 nM)	B4

Biological target: T3, human DLL4 (Sino Biological, Cat. No. 10171-H08H) (human, UniProt Q9NR61 27-529)
T3 construct: also called family protein DLL4
T3 sequence (Q9NR61 27-529 limits assumed): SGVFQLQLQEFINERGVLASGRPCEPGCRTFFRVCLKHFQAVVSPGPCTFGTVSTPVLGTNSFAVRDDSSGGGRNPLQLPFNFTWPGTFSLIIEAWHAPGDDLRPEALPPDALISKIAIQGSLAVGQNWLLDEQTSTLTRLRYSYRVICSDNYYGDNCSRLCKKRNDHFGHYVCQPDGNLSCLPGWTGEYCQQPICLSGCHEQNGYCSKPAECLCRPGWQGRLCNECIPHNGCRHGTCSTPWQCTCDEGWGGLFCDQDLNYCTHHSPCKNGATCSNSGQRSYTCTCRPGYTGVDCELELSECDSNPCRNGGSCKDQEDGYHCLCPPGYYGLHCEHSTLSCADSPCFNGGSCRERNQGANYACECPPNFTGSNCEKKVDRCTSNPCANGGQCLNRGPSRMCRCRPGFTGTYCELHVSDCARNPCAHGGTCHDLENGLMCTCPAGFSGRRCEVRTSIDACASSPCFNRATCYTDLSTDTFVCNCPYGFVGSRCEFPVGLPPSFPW
Experiment: ELISA, plate coated with human DLL4 at 1 ug/mL, OD 450nm
Method: as §1, §2, §3

binding result	Binder
no binding (tested: 100 nM)	B1
no binding (tested: 100 nM)	B2
no binding (tested: 100 nM)	B3
no binding (tested: 100 nM)	B4

Biological target: T2, Cynomolgus monkey DLL3 on HEK293 cells …
Experiment: flow cytometry, HEK293-cyno DLL3 cells
Method: SHP-77 and HEK293-cyno DLL3 cells were cultured. The culture medium for SHP-77 cells were RPMI1640+10% FBS, and the culture medium for HEK293 cyno DLL3 cells were DMEM+10% FBS+200 μg/ml Hygromycin. The cells were cultured in a T75 cell culture flask at a 37° C. 5% CO₂ incubator. When using cells, they are washed with sterile DPBS, digested with 0.25% trypsin EDTA for about 5 minutes, and then stopped with a complete medium.
The digested cells were centrifuged at 1000 rpm for 5 min at room temperature. The supernatant was discarded and the cells were resuspended in 100 μL of 1% BSA (in PBS). The cells were counted and adjusted to a cell density of 1E6/m. The dilute cells were seeded in a 96-well round-bottom culture plate (corning 3799), and centrifuged at 1500 rpm for 5 min at 4° C. The supernatant was discarded and the cells were stored at 4° C. until use. Antibody samples to be tested were diluted with 1% BSA (in PBS) at a starting concentration of 100 nM, downwards by a 10-fold gradient for 7 concentrations. The cells were resuspended with the diluted antibody at 100 μL/well and incubated for 1 hour at 4° C. The cells were centrifuged at 1500 rpm for 5 minutes at 4° C. and the supernatant was discarded. The cells were resuspended and washed with 160 μL of 1% BSA (in PBS), centrifuged at 1500 rpm for 5 minutes at 4° C. The supernatant was discarded. The secondary antibody (goat anti human IgG Fc PE) was diluted 1:200 with 1% BSA (in PBS) according to the manufacturer's instructions and the cells were resuspended with the diluted secondary antibody, 100 μL/well, and incubated for 0.5 h at 4° C. The cells were centrifuged at 1500 rpm for 5 minutes at 4° C. and the supernatant was discarded. The cells were resuspended and washed with 160 μL of 1% BSA (in PBS), centrifuged at 1500 rpm for 5 minutes at 4° C. The supernatant was discarded. The cells were resuspended in 100 μL of 1% BSA (in PBS), and filtered across a 300 mesh gauze. The mean fluorescence intensity of the PE channels was measured by flow cytometry.
The analyzed mean fluorescence intensity was imported into Graphpad to analyze the median-binding concentration (hereinafter referred to as EC50) of antibody and cell and the top mean fluorescence intensity (Top MFI).

EC50	Top MFI	Binder
0.54 nM	336 MFI	B5
2.24 nM	301 MFI	B1
0.08 nM	379 MFI	B6
0.58 nM	351 MFI	B7
0.99 nM	351 MFI	B2
0.22 nM	346 MFI	B3
0.15 nM	344 MFI	B4
